The values that follow come from patent US20150283214A1 (UNIVERSITY OF ROCHESTER, published 2015).

One test deals with T1, Human plasma fibronectin (human, UniProt P02751 32-2477, Alexa^488 label where used as FN^488).
T1 construct: Used coated on plastic at 10 nM, or soluble at 10 µg/ml, unlabeled or Alexa488-labeled; also called full-length fibronectin; FN
The test can be described thus: Alexa488-fibronectin added to cell-free wells coated with 400 nM mimetic; fluorescence after 20 h.

The target in test [1] is T2, FITC-labeled type I collagen (rat, UniProt P02454 152-1207; P02466 86-1125, FITC label).
T2 construct: also called FITC-collagen I; collagen I
T2 sequence (P02454 152-1207, chain 1 of 2): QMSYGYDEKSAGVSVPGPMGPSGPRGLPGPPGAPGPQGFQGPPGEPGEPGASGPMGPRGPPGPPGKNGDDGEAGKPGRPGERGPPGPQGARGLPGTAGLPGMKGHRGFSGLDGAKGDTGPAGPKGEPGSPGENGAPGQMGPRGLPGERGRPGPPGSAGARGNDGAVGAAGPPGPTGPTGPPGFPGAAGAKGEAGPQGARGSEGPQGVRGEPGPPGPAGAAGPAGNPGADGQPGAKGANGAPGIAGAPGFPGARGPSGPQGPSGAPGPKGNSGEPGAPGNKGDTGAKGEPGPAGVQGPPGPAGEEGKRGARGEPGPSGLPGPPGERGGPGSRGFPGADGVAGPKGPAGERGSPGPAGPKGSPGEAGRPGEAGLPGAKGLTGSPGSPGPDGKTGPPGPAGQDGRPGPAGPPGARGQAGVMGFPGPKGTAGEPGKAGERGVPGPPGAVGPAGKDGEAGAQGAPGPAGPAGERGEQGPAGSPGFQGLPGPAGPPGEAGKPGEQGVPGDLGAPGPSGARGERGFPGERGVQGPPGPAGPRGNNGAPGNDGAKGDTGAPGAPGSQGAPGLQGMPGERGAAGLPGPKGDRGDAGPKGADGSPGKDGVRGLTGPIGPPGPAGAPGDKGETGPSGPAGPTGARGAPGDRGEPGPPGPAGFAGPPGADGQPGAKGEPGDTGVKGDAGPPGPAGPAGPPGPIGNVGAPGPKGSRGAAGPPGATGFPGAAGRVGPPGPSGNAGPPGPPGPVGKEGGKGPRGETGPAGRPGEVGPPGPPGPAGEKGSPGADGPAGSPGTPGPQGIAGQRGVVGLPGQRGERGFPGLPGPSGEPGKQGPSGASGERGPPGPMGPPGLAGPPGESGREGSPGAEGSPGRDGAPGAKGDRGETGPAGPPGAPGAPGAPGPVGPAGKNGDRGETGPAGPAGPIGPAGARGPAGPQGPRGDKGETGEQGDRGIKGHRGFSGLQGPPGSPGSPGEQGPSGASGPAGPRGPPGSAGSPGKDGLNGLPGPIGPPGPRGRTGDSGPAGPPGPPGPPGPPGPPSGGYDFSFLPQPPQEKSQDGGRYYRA
T2 sequence (P02466 86-1125, chain 2 of 2): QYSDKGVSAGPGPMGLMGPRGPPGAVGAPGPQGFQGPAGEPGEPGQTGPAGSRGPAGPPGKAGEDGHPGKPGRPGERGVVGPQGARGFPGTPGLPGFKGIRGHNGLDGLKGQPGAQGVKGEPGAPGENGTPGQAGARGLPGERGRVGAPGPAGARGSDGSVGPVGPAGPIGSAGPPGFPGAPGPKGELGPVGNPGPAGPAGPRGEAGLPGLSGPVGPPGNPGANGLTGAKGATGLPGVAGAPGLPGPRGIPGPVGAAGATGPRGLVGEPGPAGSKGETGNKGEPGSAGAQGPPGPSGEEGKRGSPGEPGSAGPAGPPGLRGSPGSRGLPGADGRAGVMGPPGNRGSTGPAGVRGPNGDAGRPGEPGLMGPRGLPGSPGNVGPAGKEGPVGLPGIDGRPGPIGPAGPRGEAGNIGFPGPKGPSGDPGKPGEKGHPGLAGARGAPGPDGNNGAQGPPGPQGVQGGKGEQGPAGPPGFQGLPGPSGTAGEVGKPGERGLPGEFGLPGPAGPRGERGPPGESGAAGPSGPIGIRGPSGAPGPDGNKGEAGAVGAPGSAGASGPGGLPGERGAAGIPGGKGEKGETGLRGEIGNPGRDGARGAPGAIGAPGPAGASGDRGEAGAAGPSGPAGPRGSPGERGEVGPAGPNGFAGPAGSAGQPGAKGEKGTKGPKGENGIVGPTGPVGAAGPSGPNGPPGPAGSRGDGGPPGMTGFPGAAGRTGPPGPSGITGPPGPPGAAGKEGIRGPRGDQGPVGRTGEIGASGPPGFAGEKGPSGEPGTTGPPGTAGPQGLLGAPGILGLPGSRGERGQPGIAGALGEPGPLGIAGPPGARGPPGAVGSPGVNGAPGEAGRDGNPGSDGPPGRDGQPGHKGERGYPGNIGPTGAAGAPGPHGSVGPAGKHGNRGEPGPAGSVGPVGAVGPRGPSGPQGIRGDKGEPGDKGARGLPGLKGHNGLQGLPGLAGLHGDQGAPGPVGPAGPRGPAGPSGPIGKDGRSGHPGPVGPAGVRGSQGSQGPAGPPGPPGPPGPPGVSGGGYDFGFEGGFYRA
The test is described as follows: FITC-collagen I added to cell-free, fibronectin-free wells coated with 400 nM mimetic; fluorescence after 20 h. How it is done: FIGS. 14A-14C show collagen I deposition by cells adherent to matrix mimetics. FN-null MEFs were seeded (3.0×10⁴ cells/cm²) on tissue culture plates pre-coated with matrix mimetics (400 nM). Four hours after seeding, cells were treated with fibronectin (10 μg/ml) and FITC-collagen I (10 μg/ml) for 20 h. In FIG. 14A, control wells received either FITC-collagen I only (+cell, −FN) or FITC collagen I in the absence of both cells and fibronectin (−cells, −FN). […] In FIG. 14B, cells were processed for immunofluorescence microscopy and stained using an antibody against fibronectin. Images represent 1 of 3 experiments. Bar=10 μm. Four hours after seeding, cells were treated with fibronectin (10 μg/ml) and FITC-collagen I ([…]) in the presence of either R1R2 (250 nM) or FNIII11C (250 nM).
The deposition of collagen I into the ECM is dependent on the co-assembly of a fibronectin matrix (Sottile et al., “Fibronectin Polymerization Regulates the Composition and Stability of Extracellular Matrix Fibrils and Cell-Matrix Adhesions,” Mol. Biol. Cell. 13(10):3546-3559 (2002), which is hereby incorporated by reference in its entirety). […] FITC-collagen I deposition was quantified 20 h after fibronectin and collagen addition.

Test [2] addresses T3, α5β1 integrin on mouse embryonic fibronectin-null fibroblasts (mouse, UniProt P11688 45-1053; P09055 21-798).
T3 construct: whole, on cells; Endogenous integrin on FN-null MEFs; also called α5β1 integrins; a5β1 integrin
The test is described as follows: immunofluorescence of α5 integrin clustering in FN-null MEFs adherent for 4 h to coated substrate. How it is done: FIGS. 16A-16C show substrate-dependent ligation and clustering of α5β1 integrins. FN-null MEFs were seeded at a density of 2.5×10³ cells/cm² (FIG. 16A) or 3×10⁴ cells/cm² (FIG. 16B) onto tissue culture plates precoated with 400 nM of the various fibronectin matrix mimetics or 10 nM full-length fibronectin and allowed to adhere and spread for 4 h. In FIG. 16A, cells were processed for immunofluorescence microscopy and stained using antibodies against α5 integrin and vinculin. Images represent 1 of 3 experiments. Bar=10 μm. In FIG. 16B, cell surface proteins bound to the adhesive substrates were cross-linked using bis(sulfosuccinimidyl)suberate (BS³). Unbound proteins were extracted and […]. α5 integrins were analyzed by immunoblotting.
The preceding Examples therefore indicate that upon adhesion to GST/III1H,8-10, α5β1 integrins preferentially engage the adhesive substrate instead of soluble fibronectin, thus inhibiting the initiation of the matrix assembly process. To assess α5β1 integrin clustering in response to substrate adhesion, FN-null MEFs were allowed to adhere and spread for 4 h on plates pre-coated with saturating densities of matrix mimetics in the absence of soluble fibronectin. α5β1 integrins were visualized by immunofluorescence microscopy. […]

T1 sequence (P02751 other isoform, or with tags, fused parts or gaps): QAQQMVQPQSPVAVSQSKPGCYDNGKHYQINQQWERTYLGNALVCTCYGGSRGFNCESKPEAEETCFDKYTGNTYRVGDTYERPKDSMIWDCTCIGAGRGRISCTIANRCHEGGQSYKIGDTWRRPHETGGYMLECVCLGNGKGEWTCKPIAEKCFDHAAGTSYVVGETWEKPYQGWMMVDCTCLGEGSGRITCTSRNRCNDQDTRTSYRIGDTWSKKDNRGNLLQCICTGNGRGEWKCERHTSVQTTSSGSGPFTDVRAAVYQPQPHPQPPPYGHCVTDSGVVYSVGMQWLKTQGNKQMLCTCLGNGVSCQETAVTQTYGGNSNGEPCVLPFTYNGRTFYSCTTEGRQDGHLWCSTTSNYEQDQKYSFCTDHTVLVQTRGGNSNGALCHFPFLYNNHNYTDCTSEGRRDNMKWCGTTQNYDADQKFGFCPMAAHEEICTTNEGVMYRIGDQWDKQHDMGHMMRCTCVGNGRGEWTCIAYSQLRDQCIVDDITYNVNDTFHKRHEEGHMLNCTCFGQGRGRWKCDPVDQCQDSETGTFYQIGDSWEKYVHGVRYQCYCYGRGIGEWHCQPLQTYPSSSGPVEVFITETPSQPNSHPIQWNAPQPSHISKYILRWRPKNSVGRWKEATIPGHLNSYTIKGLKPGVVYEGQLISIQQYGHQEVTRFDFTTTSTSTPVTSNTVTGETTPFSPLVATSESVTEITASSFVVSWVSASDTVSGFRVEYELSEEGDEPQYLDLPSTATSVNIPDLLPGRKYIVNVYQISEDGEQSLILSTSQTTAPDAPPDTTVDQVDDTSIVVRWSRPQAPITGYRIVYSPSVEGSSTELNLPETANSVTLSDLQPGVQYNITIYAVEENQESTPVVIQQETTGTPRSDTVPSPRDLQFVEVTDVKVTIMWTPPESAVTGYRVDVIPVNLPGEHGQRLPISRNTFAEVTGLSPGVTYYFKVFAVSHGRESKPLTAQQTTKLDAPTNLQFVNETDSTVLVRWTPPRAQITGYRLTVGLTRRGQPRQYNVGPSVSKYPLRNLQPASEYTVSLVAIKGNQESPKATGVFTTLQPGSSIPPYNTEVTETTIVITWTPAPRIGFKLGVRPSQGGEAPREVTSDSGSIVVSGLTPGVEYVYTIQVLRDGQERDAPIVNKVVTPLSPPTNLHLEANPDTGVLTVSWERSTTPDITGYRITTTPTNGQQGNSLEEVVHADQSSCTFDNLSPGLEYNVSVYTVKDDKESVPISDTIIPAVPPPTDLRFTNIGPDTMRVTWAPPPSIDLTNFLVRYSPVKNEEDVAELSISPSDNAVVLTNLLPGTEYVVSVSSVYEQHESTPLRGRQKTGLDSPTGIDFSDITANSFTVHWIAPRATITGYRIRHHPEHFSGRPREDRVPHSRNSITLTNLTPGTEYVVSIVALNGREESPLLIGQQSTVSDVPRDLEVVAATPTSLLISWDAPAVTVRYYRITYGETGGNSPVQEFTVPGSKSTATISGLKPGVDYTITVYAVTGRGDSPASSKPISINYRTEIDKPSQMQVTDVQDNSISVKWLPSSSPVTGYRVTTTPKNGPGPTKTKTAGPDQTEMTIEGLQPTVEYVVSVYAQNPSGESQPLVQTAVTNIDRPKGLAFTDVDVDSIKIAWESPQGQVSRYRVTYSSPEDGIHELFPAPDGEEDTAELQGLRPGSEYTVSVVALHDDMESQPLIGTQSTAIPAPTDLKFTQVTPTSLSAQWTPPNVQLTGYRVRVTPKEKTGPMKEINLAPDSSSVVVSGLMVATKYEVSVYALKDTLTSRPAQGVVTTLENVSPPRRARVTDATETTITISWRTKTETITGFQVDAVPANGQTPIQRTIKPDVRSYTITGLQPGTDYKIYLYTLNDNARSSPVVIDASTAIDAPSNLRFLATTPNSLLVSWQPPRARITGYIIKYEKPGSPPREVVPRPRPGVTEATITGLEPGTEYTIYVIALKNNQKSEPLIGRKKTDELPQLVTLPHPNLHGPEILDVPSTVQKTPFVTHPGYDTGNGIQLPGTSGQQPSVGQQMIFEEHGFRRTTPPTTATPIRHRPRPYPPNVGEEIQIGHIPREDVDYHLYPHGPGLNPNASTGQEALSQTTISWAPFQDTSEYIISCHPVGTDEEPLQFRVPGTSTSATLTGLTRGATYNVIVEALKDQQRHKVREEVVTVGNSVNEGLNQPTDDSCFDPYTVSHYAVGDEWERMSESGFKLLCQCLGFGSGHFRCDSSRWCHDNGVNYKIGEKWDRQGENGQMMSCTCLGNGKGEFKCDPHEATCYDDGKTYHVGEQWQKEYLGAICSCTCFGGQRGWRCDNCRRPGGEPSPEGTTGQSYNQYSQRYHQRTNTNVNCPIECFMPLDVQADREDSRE

B1: GST/III1H,8,10 (other)
chain: IQWNAPQPSHISKYILRWRPKNSVGRWKEATIPGHLNSYTIKGLKPGVVYEGQLISIQQYGHQEVTRFDFTTTSTSTAVPPPTDLRFTNIGPDTMRVTWAPPPSIDLTNFLVRYSPVKNEEDVAELSISPSDNAVVLTNLLPGTEYVVSVSSVYEQHESTPLRGRQKTVSDVPRDLEVVAATPTSLLISWDAPAVTVRYYRITYGETGGNSPVQEFTVPGSKSTATISGLKPGVDYTITVYAVTGRGDSPASSKPISI
notes: Coated on tissue culture plastic in the assays; also called FNIII1H,8,10; not shown: glutathione S-transferase (GST) tag encoded by vector pGEX-2T (Amersham Biosciences)
As to B1, the binding result (with Human plasma fibronectin; in test [1]) was “no binding (tested: 10 µg/ml)” in each case.

B2: GST/III1H,8^RGD (other)
chain: IQWNAPQPSHISKYILRWRPKNSVGRWKEATIPGHLNSYTIKGLKPGVVYEGQLISIQQYGHQEVTRFDFTTTSTSTAVPPPTDLRFTNIGPDTMRVTWAPPPSIDLTNFLVRYSPVKNEEDVAELSISPSDNAVVLTNLLPGTEYVVSVSSVYGRGDSPASSTPLRGRQKT
notes: Coated on tissue culture plastic in the assays; also called FNIII1H,8^RGD; not shown: glutathione S-transferase (GST) tag encoded by vector pGEX-2T (Amersham Biosciences)
Turning to B2, the binding result with Human plasma fibronectin is “no binding (tested: 10 µg/ml)”; in test [1], “no binding (tested: 10 µg/ml)”; in test [2], “no binding (tested: 400 nM coating)”.
